Test results taken from patent US4446316A, “Dextran derivative of fibrinolysin” (Vsesojuzny Kardiologichesky Nauchny Tsentr, priority 1980, dated 1984).
“Also recorded” adds a separate entry of the source.

Experiments:
[1] = test system: thromboses of a rabbit's jugular vein; assay: Thrombolytic activity on model of thrombosis of rabbit's jugular vein (lysis of thrombus); type: in vivo; settings: rabbits
Source text: (§1) The study of the specific (thrombolytic) effect of the polysaccharide fibrinolysin derivative according to the present invention has been studied on models of thromboses of a rabbit's jugular vein and a dog's femoral vein or artery. Thrombi of 1 to 2.5 cm size were formed in the above-mentioned animals which fully obliterated the cross-section of a blood vessel. The administration of the test preparation at the background of heparin was started one hour after the thrombus formation.
(§2) On the basis of an expected prolonged fibrinolytic effect of the preparation according to the present invention, a test dose of the preparation ranging from 400 to 4,000 units per kg of the bodyweight is dissolved in a physiological solution, 20-30 ml for rabbits and 50-100 ml for dogs, and injected by means of a syringe in a jet-like manner intravenously over 20 minutes, not following the instruction on the use of fibrinolysin (intravenously by the dropwise method at a rate of 10-12 drops per minute).
(§3) The dynamics of the thrombus formation and lysis was observed visually and by palpation during 6 hours of the experiment, after one, two and three days. The angiography and fluorometry were carried out prior to the beginning of the treatment and one day after the administration of the preparation.

[2] = test system: thromboses of a dog's femoral vein or artery; assay: Thrombolytic activity on model of thrombosis of dog's femoral vein (lysis of thrombus); type: in vivo; settings: dogs, femoral vein, 600 units/kg i.v., n=3
Source text: as §1, §2, §3

[3] = test system: euglobulin fraction of dog's plasma; assay: Lysis duration of the euglobulin fraction of dog's plasma with experimental thrombosis; type: in vivo
Source text: (§4) The prolonged effect of the fibrinolysin derivative according to the present invention has been studied in experiments on dogs in comparison with the effect of native fibrinolysin.
Variation of lysis duration (in minutes) of the euglobulin
fraction of dog's plasma with experimental thrombosis upon
administration of the fibrinolysin derivative according to
the present invention and native fibrinolysin

thrombin time = assay: Thrombin time in dogs with experimental thrombosis; type: in vivo, dog
Source text: as §4
Variation of thrombin time (in seconds) in dogs with expe-
rimental thrombosis after administration of the fibrinolysin
derivative according to the present invention and native

Mice = assay: Toxicity upon intravenous injection in mice; type: in vivo, white mice; settings: i.v.
Source text: (§5) The toxicity of the fibrinolysin derivative according to the present invention was studied on white mice, rats, rabbits and dogs.
(§6) Toxicity of the fibrinolysin derivative of the invention
(§7) for animals of different species upon intravenous injection

Rats = assay: Toxicity upon intravenous injection in rats; type: in vivo; settings: i.v.
Source text: as §5, §6, §7

Rabbits = assay: Toxicity upon intravenous injection in rabbits; type: in vivo; settings: i.v.
Source text: as §5, §6, §7

Dogs = assay: Toxicity upon intravenous injection in dogs; type: in vivo; settings: i.v.
Source text: as §5, §6, §7

[4] = test system: white mice, rats, rabbits and dogs; assay: Toxicity, general findings in white mice, rats, rabbits and dogs; type: in vivo; settings: for Death of animals: single i.v. dose exceeding the therapeutic dose by 4-5 times
Source text: as §5

blood coagulation = assay: Blood coagulation and bleeding during therapy of experimental thrombosis; type: in vivo, rabbit; settings: during treatment
Source text: as §1, §2, §3

experimental thrombosis = assay: Duration of fibrinolytic effect and effective dose in experimental thrombosis; type: in vivo, rabbits, dogs
Source text: as §1, §2, §3

[5] = Solubility and hygroscopicity of the preparation; type: physicochemical
[6] = prior-art product (Kardiologiya, 1977); cited from earlier work
[7] = before administration (baseline)

B1: Fibrinolysin derivative of the invention: fibrinolysin covalently bonded to dextran dialdehyde (molecular mass 20,000 to 110,000), reduced with sodium borohydride (conjugate, UniProt P00747 20-580; P00747 581-810, looked up)
Plasmin heavy chain A: EPLDDYVNTQGASLFSVTKKQLGAGSIEECAAKCEEDEEFTCRAFQYHSKEQQCVIMAENRKSSIIIRMRDVVLFEKKVYLSECKTGNGKNYRGTMSKTKNGITCQKWSSTSPHRPRFSPATHPSEGLEENYCRNPDNDPQGPWCYTTDPEKRYDYCDILECEEECMHCSGENYDGKISKTMSGLECQAWDSQSPHAHGYIPSKFPNKNLKKNYCRNPDRELRPWCFTTDPNKRWELCDIPRCTTPPPSSGPTYQCLKGTGENYRGNVAVTVSGHTCQHWSAQTPHTHNRTPENFPCKNLDENYCRNPDGKRAPWCHTTNSQVRWEYCKIPSCDSSPVSTEQLAPTAPPELTPVVQDCYHGDGQSYRGTSSTTTTGKKCQSWSSMTPHRHQKTPENYPNAGLTMNYCRNPDADKGPWCFTTDPSVRWEYCNLKKCSGTEASVVAPPPVVLLPDVETPSEEDCMFGNGKGYRGKRATTVTGTPCQDWAAQEPHRHSIFTPETNPRAGLEKNYCRNPDGDVGGPWCYTTNPRKLYDYCDVPQCAAPSFDCGKPQVEPKKCPGR
Plasmin light chain B: VVGGCVAHPHSWPWQVSLRTRFGMHFCGGTLISPEWVLTAAHCLEKSPRPSSYKVILGAHQEVNLEPHVQEIEVSRLFLEPTRKDIALLKLSSPAVITDKVIPACLPSPNYVVADRTECFITGWGETQGTFGAGLLKEAQLPVIENKVCNRYEFLNGRVQSTELCAGHLAGGTDSCQGDSGGPLVCFEKDKYILQGVTSWGLGCARPNKPGVYVRVSRFVTWIEGVMRNN
modifications: Plasmin dextran dialdehyde conjugate, borohydride reduced
notes: fibrinolysin covalently bonded to dextran dialdehyde (molecular mass 20,000 to 110,000), reduced with sodium borohydride
- Efficiency of the therapy (lysis of thrombus) ([1]; 400 units/kg i.v., n=7): full lysis
- Efficiency of the therapy (lysis of thrombus) ([1]; 600 units/kg i.v.): full lysis
- Efficiency of the therapy (lysis of thrombus) [2]: full lysis
- Lysis duration of the euglobulin fraction ([3]; after 2 hours): 90 min
- Lysis duration of the euglobulin fraction ([3]; after 1 day): 1 min
- Lysis duration of the euglobulin fraction ([3]; after 2 days): 10 min
- Lysis duration of the euglobulin fraction, initial parameter [3, 7]: 70 min
- Thrombin time (thrombin time; after 2 hours): 90 s
- Thrombin time (thrombin time; after 1 day): 92 s
- Thrombin time (thrombin time; after 2 days): 210 s
- Thrombin time, initial parameter (thrombin time; [7]): 35 s
- LD50 (Mice): 5000 un./kg
- Toxicity test result (dead/survived, not defined) (Mice; 2000 un/kg): 0/6
- Toxicity test result (dead/survived, not defined) (Mice; 2500 un/kg): 0/6
- Toxicity test result (dead/survived, not defined) (Mice; 5000 un/kg): 2/4
- Toxicity test result (dead/survived, not defined) (Mice; 6250 un/kg): 6/0
- LD50 (Rats): 4586 un./kg
- Toxicity test result (dead/survived, not defined) (Rats; 2000 un/kg): 0/6
- Toxicity test result (dead/survived, not defined) (Rats; 2500 un/kg): 0/6
- Toxicity test result (dead/survived, not defined) (Rats; 3750 un/kg): 2/4
- Toxicity test result (dead/survived, not defined) (Rats; 5000 un/kg): 3/3
- Toxicity test result (dead/survived, not defined) (Rats; 6250 un/kg): 6/0
- LD50 (Rabbits): 1834 un./kg
- Toxicity test result (dead/survived, not defined) (Rabbits; 500 un/kg): 0/6
- Toxicity test result (dead/survived, not defined) (Rabbits; 1500 un/kg): 2/4
- Toxicity test result (dead/survived, not defined) (Rabbits; 2000 un/kg): 2/4
- Toxicity test result (dead/survived, not defined) (Rabbits; 2500 un/kg): 6/0
- Toxicity test result (dead/survived, not defined) (Dogs; 500 un/kg): 0/3
- Toxicity test result (dead/survived, not defined) (Dogs; 1000 un/kg): 0/3
- Toxicity test result (dead/survived, not defined) (Dogs; 1500 un/kg): 0/1
- Toxicity ([4]; compared with native fibrinolysin / overall statement, listed as fibrinolysin derivative according to the present invention): low toxicity
- Effect on the vessels ([4]; in the test doses): no injuring effect on the vessels
- Macro- and microscopic changes in the inner organs ([4]; in the test doses): no macro- and microscopic changes in the inner organs
- Effect on the central nervous system and blood pressure ([4]; in therapeutical doses): no effect on the central nervous system and blood pressure
- Death of animals ([4]; listed as fibrinolysin derivative according to the present invention): does not result in death of animals
- Death of animals ([4]; listed as fibrinolysin derivative of the present invention): does not result in their death
- Bleeding (blood coagulation): not accompanied by bleeding
- Changes in the third phase of blood coagulation (blood coagulation): no sharp changes in the third phase of blood coagulation
- Normalization of changes in the blood clotting system (experimental thrombosis; after administration): on the second day
- Duration of the fibrinolytic effect (experimental thrombosis; after administration, listed as fibrinolysin derivative according to the present invention): up to two days after administration; also recorded: observed also on the second day
- Minimal effective (therapeutical) dose (experimental thrombosis; single intravenous jet-like infusion): 400 units/kg
- Prolongation of the effect as compared to native fibrinolysin (experimental thrombosis; vs native fibrinolysin): 2-3 times
- Solubility in 0.9% isotonic solution of sodium chloride ([5]; 0.9% sodium chloride): readily soluble
- Solubility in 95% ethanol ([5]; 95% ethanol): substantially insoluble
- Solubility in chloroform ([5]; chloroform): substantially insoluble
- Solubility in ether ([5]; ether): substantially insoluble
- Hygroscopicity ([5]; lyophilized powder): hygroscopic
- Solubility in water ([5]; water): readily soluble

B2: derivative of fibrinolysin with aldehyde-containing sephadex: fibrinolysin reacted with a modified aldehyde-containing sephadex in a phosphate buffer at 4° C. (conjugate, UniProt P00747 20-580; P00747 581-810, looked up)
Plasmin heavy chain A: EPLDDYVNTQGASLFSVTKKQLGAGSIEECAAKCEEDEEFTCRAFQYHSKEQQCVIMAENRKSSIIIRMRDVVLFEKKVYLSECKTGNGKNYRGTMSKTKNGITCQKWSSTSPHRPRFSPATHPSEGLEENYCRNPDNDPQGPWCYTTDPEKRYDYCDILECEEECMHCSGENYDGKISKTMSGLECQAWDSQSPHAHGYIPSKFPNKNLKKNYCRNPDRELRPWCFTTDPNKRWELCDIPRCTTPPPSSGPTYQCLKGTGENYRGNVAVTVSGHTCQHWSAQTPHTHNRTPENFPCKNLDENYCRNPDGKRAPWCHTTNSQVRWEYCKIPSCDSSPVSTEQLAPTAPPELTPVVQDCYHGDGQSYRGTSSTTTTGKKCQSWSSMTPHRHQKTPENYPNAGLTMNYCRNPDADKGPWCFTTDPSVRWEYCNLKKCSGTEASVVAPPPVVLLPDVETPSEEDCMFGNGKGYRGKRATTVTGTPCQDWAAQEPHRHSIFTPETNPRAGLEKNYCRNPDGDVGGPWCYTTNPRKLYDYCDVPQCAAPSFDCGKPQVEPKKCPGR
Plasmin light chain B: VVGGCVAHPHSWPWQVSLRTRFGMHFCGGTLISPEWVLTAAHCLEKSPRPSSYKVILGAHQEVNLEPHVQEIEVSRLFLEPTRKDIALLKLSSPAVITDKVIPACLPSPNYVVADRTECFITGWGETQGTFGAGLLKEAQLPVIENKVCNRYEFLNGRVQSTELCAGHLAGGTDSCQGDSGGPLVCFEKDKYILQGVTSWGLGCARPNKPGVYVRVSRFVTWIEGVMRNN
modifications: plasmin conjugated to aldehyde-containing Sephadex
- Solubility in water and aqueous solutions [6]: not soluble
